Experimental data: publication PMC7494870, “Arrangement and symmetry of the fungal E3BP-containing core of the pyruvate dehydrogenase complex” (Nature Communications, 2020)

Legend:
[1] = target: T1, N. crassa PX (30-426), His-tagged, separately expressed (N. crassa, UniProt Q7RWS2 30-426); assay: pull-down; separately expressed tE2 and His-tagged PX variants, brief incubation, co-purified by Ni-NTA affinity
T1 construct: Protein X (PX), Neurospora crassa, residues 30-426 of uniprot Q7RWS2; His6 tag is cleavable with TEV; protein was either cleaved with TEV or eluted with imidazole depending on the purpose; also called full-length PX; source: E. coli Rosetta2 (DE3), pRSET vector, single expression, Ni-NTA
T1 sequence (looked up): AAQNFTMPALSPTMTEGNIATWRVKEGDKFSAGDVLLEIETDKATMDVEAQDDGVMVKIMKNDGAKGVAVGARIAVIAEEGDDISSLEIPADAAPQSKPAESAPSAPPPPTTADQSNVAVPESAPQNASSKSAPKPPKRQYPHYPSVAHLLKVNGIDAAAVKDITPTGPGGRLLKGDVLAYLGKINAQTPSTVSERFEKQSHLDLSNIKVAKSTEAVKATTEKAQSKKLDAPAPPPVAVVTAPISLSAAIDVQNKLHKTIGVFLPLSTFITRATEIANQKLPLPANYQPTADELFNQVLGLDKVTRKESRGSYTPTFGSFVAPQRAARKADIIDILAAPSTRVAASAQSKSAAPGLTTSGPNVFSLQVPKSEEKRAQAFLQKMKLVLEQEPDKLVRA

[2] = target: the molecule itself; assay: cryo-EM structure; single-particle cryo-EM of the reconstituted tE2 + PX30 recombinant subcomplex, icosahedral symmetry
[3] = target: the molecule itself; assay: cryo-EM structure; single-particle cryo-EM of the co-expressed tE2 + PX261 subcomplex, icosahedral symmetry
[4] = target: T2, Neurospora crassa protein X (endogenous, in the native PDC) (N. crassa (endogenous in N. crassa …, UniProt Q7RWS2 1-426)); assay: cryo-EM structure; single-particle cryo-EM of intact native PDC purified from N. crassa mitochondria; icosahedral and tetrahedral (classes X, Y) reconstructions; conditions: both partners purified
T2 construct: Protein X (PX) of the pyruvate dehydrogenase complex, Neurospora crassa, uniprot Q7RWS2, locus NCU00050; Forms trimers inside the E2 core; also called PX; X-component; source: endogenous, PDC purified from N. crassa mitochondria (DDM lysis, sucrose cushion, sucrose gradient, SEC)
T2 sequence (looked up): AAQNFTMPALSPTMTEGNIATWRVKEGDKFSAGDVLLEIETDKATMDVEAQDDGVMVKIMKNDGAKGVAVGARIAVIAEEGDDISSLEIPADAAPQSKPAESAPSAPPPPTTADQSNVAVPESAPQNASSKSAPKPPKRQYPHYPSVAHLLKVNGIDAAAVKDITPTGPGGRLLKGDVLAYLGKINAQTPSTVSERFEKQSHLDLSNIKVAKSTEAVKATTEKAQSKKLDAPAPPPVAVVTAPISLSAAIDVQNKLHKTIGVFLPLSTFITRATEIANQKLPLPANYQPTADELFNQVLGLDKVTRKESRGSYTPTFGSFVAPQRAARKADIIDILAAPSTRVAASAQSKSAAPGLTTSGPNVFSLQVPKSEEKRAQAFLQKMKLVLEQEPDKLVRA

[5] = target: the molecule itself; assay: as above

B1: N. crassa E2 core-forming domain, tE2 (225-458), separately expressed (domain or fragment, UniProt P20285 225-458, looked up)
chain: AAYTDVPISGMRKTIAARLKESVTENPHFFVSTNLSVSKLLKLRQALNSSADGRYKLSVNDFLIKAMGIASKRVPTVNSSWRDGVIRQFETVDVSVAVATPNGLITPIVKGVEGKGLESISAAVKELAKKARDGKLKPEEYQGGSISISNMGMNPAVQSFTAIINPPQAAILAVGAPQKVAVPVENEDGTTGVSWDEQIIVTASFDHKVVDGAVGAEWIRELKKVIENPLELLL
notes: E2 core-forming domain, Neurospora crassa, residues 225-458 of uniprot P20285; His6 tag is cleavable with thrombin; PDB 6ZLO covers residues 227-458; source: E. coli Rosetta2 (DE3), pRSET vector, single expression
B1: binds [1]; binds [2].

B2: N. crassa E2 core-forming domain, tE2 (225-458), untagged, co-expressed with PX constructs (domain or fragment, UniProt P20285 225-458, looked up)
chain: AAYTDVPISGMRKTIAARLKESVTENPHFFVSTNLSVSKLLKLRQALNSSADGRYKLSVNDFLIKAMGIASKRVPTVNSSWRDGVIRQFETVDVSVAVATPNGLITPIVKGVEGKGLESISAAVKELAKKARDGKLKPEEYQGGSISISNMGMNPAVQSFTAIINPPQAAILAVGAPQKVAVPVENEDGTTGVSWDEQIIVTASFDHKVVDGAVGAEWIRELKKVIENPLELLL
notes: E2 core-forming domain, Neurospora crassa, residues 225-458 of uniprot P20285; also called untagged E2 core-forming domain; source: E. coli Rosetta2 (DE3), petDuet dual-expression vector, co-expressed with His-tagged PX constructs, in lysate; co-purified on Ni-NTA
B2: binds [3].

B3: Neurospora crassa pyruvate dehydrogenase complex E2 (endogenous, core of the native PDC) (enzyme, UniProt P20285 29-458, looked up)
chain: ASYPPHTVVKMPALSPTMTSGGIGAWQKKPGDKIEPGEVLVEIETDKAQMDFEFQEEGVLAKILKDSGEKDVAVGNPIAILVEEGTDVNAFKDFTLKDAGGETSPAVPKDEPKNESTASAPTPAPTPAPEPENTSFTGRFQTALEREPNALPAAKRLAREKGIDLRNVKGSGPGGKITEEDVKKALASAPAAGAAAAAYTDVPISGMRKTIAARLKESVTENPHFFVSTNLSVSKLLKLRQALNSSADGRYKLSVNDFLIKAMGIASKRVPTVNSSWRDGVIRQFETVDVSVAVATPNGLITPIVKGVEGKGLESISAAVKELAKKARDGKLKPEEYQGGSISISNMGMNPAVQSFTAIINPPQAAILAVGAPQKVAVPVENEDGTTGVSWDEQIIVTASFDHKVVDGAVGAEWIRELKKVIENPLELLL
notes: E2 of the pyruvate dehydrogenase complex, Neurospora crassa, uniprot P20285; residues 232-458 identified in the native reconstruction; Icosahedral core of 60 E2 in the native complex; only the core-forming domain is ordered in the map; also called E2 core; PDC core; source: endogenous, PDC purified from N. crassa mitochondria (DDM lysis, sucrose cushion, sucrose gradient, SEC); copies: 60
For B3, the “stoichiometry N” value [4] was ≤ 12 PX monomers per E2 core and the “stoichiometry N” value [5] was 60.
